Assay results: the nanobody polyreactivity screen of Harvey et al. (2022)

Test: yeast display, Sf9 membrane polyspecificity reagent, FACS + sequencing; frameworks hold sequencing errors
Procedure, shortened: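 Synthetic nanobody libraries on Saccharomyces cerevisiae BJ5465 were galactose-induced for 36–48 hours, stained 1 hour at 4 °C with 10% biotinylated, detergent-solubilized Sf9 membrane reagent and enriched on streptavidin microbeads. FACS then separated cells into low and high (top ~1%) gates by anti-HA (expression) and streptavidin (reagent binding) fluorescence. Genes were colony-PCR amplified, MiSeq 2 × 250 sequenced and CDR-length filtered. A clone's polyreactivity label is that of its gate of origin.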

Sequence | polyreactivity (PSR sort gate)
QVQLVESGGGLVQAGGSLRLSCAASGRTFSGYAMGWYRPAPGKERELVATISSGGRTNYADSVKGRFTISRDNAKNTVYLQMISLKPEDTAVYYCNVRWWGRGPWSDYWGQGTQVTVSS | high polyreactivity
QVQLVESGGGLVQAGGSLRLSCAASGRTFSGYAMGWYRQAPGKERELVAAIRGGSTNYADSVKGRFTISRDNAKNTVYLQMNSLKPEDTAVYYCNAKRSWVWAGYDYWGQGTQVTVSS | high polyreactivity
QVQLVESGGGLVQAGGSLRLSCAASGRTFSGYAMGWYRQAPGKERELVAAISNSGGNTYYADSVKGRFTISRDNAKNTVYLQMNSLKAEDTAVYYSAVDSSSPYDYWGQGTQVTVSS | high polyreactivity
QVQLVESGGGLVQAGGSLRLSCAASGRTFSGYAMGWYRQAPGKERELVAAISSGGGSTYYADSVKGRFTISRDNAKNTVYLQMNSLKPEDTAVYYCAADGYPGDYDYWRQGTQVTVSS | low polyreactivity
QVQLVESGGGLVQAGGSLRLSCAASGRTFSGYAMGWYRQATGKERELVAAITRRGGTTYYADSVKGRFTISRDNAKNTVYLQMNSLKPEDTAVYYCAAAKPRVISQNIIYDYWGQGTQVTVSS | high polyreactivity
QVQLVESGGGLVQAGGSLRLSCAASGRTFSGYVMGWYRQAPGKERELVATINGSGASTYYADSVKGRFTISRDNAKNTVYLQMNSLKPEDTAVYYCNKYPAHYQTRRYDYWGQGTQVTVSS | high polyreactivity
QVQLVESGGGLVQAGGSLRLSCAASGRTFSIYAMGWYRQAPGKERELVAAISNGGRTKYADSVKGRFTISRDNAKNTVYLQMNSLKPEDTAVYYCNALAYNVPRYDYWGQGTQVTVSS | high polyreactivity
QVQLVESGGGLVQAGGSLRLSCAASGRTFSIYAMGWYRQAPVKERELVAAISNGGRTKYADSVKGRFTISRDNAKNTVSLQMNSLKPEDTAVYYCAKRTYSRKFRGAYNYWGQGTQVTVSS | high polyreactivity
QVQLVESGGGLVQAGGSLRLSCAASGRTFSKYAMGWYRQAPGKERELVASISSDGRTYYADSVKGRFTISRDNAKNTVYLQMNRLKPEDTAVYYCAAKEWYFPTWYTYYERDYWGQGTQVTVSS | high polyreactivity
QVQLVESGGGLVQAGGSLRLSCAASGRTFSKYTMGWYRQATGKERELVAVISRSGTRTYYADSVKGRFTISRDNAKNTVYLQMNSLKREDTAVYYCAAKDERRSFGMGYWGQGTQVTVSS | high polyreactivity
QVQLVESGGGLVQAGGSLRLSCAASGRTFSLYAMGWYRQAPGKERELVAGIDWSGGSTYYADSVKGRFTISRDNAKNTVYLQMNSLKPEDTAVYYCAAKYVWVSKASKDYDYWGQGTQVTVSS | low polyreactivity
QVQLVESGGGLVQAGGSLRLSCAASGRTFSNNVMGWYRQAPGKERELVAAISGRGGRTYYADSVKGRFTISRDNAKNTVYLQMNSLKPEDTAVYYCAAGAYWPDEYWGQGTQVSVSS | high polyreactivity
QVQLVESGGGLVQAGGSLRLSCAASGRTFSNYAMGWYRQAPGKERELVAAITGSGGSTYYADSVKGRFTISRDNAKNTVYLQLISLKPEDTAVYYCNAYRASKYLTGNGHDYWGQGTQVTVSS | low polyreactivity
QVQLVESGGGLVQAGGSLRLSCAASGRTFSNYAMGWYRQAPGKERELVAAITGSGGSTYYADSVKGRFTISRDNAKNTVYLQMHSLKPEDTAVYYCNAYRASKYLTGNGHDYWGQGTQVTVSS | low polyreactivity
QVQLVESGGGLVQAGGSLRLSCAASGRTFSPYALGWSRKAPGKERELVAAITSRGSNTFYADSVKGRFTISRDNAKNTVYLQMNSLKPEDTAVYYCNKYTIVSRYDYWGQGTQVTVSS | high polyreactivity
QVQLVESGGGLVQAGGSLRLSCAASGRTFSPYAMGWYRQAPGKERELVAAISWIGGSTYYADSVKGRFTISRDNAKNTVYLQMNSLKPEDTAVYYCAADKSVFSDSHAVSMIYRYDYWGQGTQVTVSS | low polyreactivity
QVQLVESGGGLVQAGGSLRLSCAASGRTFSPYAMGWYRQAPGKERELVAAITSRGASTYYADSVKGRFTISRDNAKNTVYLQINSLKPEDTAVYYCNSGRTYRRLGDYWGQGTQVTVSS | high polyreactivity
QVQLVESGGGLVQAGGSLRLSCAASGRTFSQYAMGWYRQAPGKERELVAAISRGGGSTYYADSVKGRFTISRDNAKNTVYLQMNSLKPEDTAVYYCARATYFYYPFGSWGQGTQVTVSS | high polyreactivity
QVQLVESGGGLVQAGGSLRLSCAASGRTFSRNAMGWYRQAPGKEREFVASISRSGTSTYYADSVKGRFTISRDNAKNTVYLHMNSLKPEDTAVYYCAKTYASSQGYDYWGLGTQVTVSS | high polyreactivity
QVQLVESGGGLVQAGGSLRLSCAASGRTFSRNAMGWYRQAPGKEREFVASISRSGTSTYYADSVKGRFTISRDNAKNTVYLQMNSLKPEDTAVYYCAKTYASSQGYDYWGQGTQVTVSS | high polyreactivity
QVQLVESGGGLVQAGGSLRLSCAASGRTFSRNAMGWYRQAPGKERELVAAITYSGGTTYYADSVKGRFTISRDNAKNTVYLQMNSLKPEDTAVYYCATPSRKSGVGYPSYNYWGQGTQVTVSS | high polyreactivity
QVQLVESGGGLVQAGGSLRLSCAASGRTFSRNAMGWYRQAPGKERELVATITSDGSTNYADSVKGRFTISRDNAKNTVYLQMNSLKPEDTAVYYCAAGEQSSIIGAHDYWGQGTQVTVSS | low polyreactivity

Sequence | polyreactivity (PSR sort gate)
QVQLVESGGGLVQAGGSLRLSCAASGRTFSRYAMGCYRQAPGKERELVAVITSSGASTYYADSVKGRFTISRDNAKNTVYLQMNSLKPEDTAVYYCAADRYYRGRRMNYWRQGTQVTVSS | high polyreactivity
QVQLVESGGGLVQAGGSLRLSCAASGRTFSRYAMGWYRQAPGKERELVAAITSGGGSTYYADSVKGRFTISRDNAKNTVYLQMNSLKPEDTAVYYCAARTSGDGWIYYYWGQGTQVTVSS | high polyreactivity
QVQLVESGGGLVQAGGSLRLSCAASGRTFSRYAMGWYRQAPGKERELVAGISRSGTSTYYADSVKGRFTFSRDNAKNTVYLQMNSLKPEDTAVYYCAAYYEYRRDYWGQGTQVTVSS | high polyreactivity
QVQLVESGGGLVQAGGSLRLSCAASGRTFSRYAMGWYRQAPGKERELVASMTRRGGRTYYADSVKGRFTISRDNAKNTVYFQMTSLKPEDTAGYYCNATSQIPWSSYYYWGQGTQVTVSS | high polyreactivity
QVQLVESGGGLVQAGGSLRLSCAASGRTFSRYVMGWYRQAPGKERELVAAISRTGGRTYYADSVKGRFTISRDNAKNTVYLQMNSLKPEDTAVYYCNAGTVLISTYDYWGQGTQVTVSS | high polyreactivity
QVQLVESGGGLVQAGGSLRLSCAASGRTFSSYAMGWYRQAPGKERELVARISSSGGRTSYADSVKGRFTISRDNAKNTVYLQMKSLKPEDTAVYYCAKTYHWLYDYWGQGTQVTVSS | high polyreactivity
QVQLVESGGGLVQAGGSLRLSCAASGRTFSSYTMGWYRQAPGKERELVASITNNGGSTYYADSVKGRFTISRDNEKNTVYLQMNSLKPEDTAGYYCNANSRVGLQDKKPRDYDGYDSWGQGTQVTVSS | low polyreactivity
QVQLVESGGGLVQAGGSLRLSCAASGRTFSTNAMGWYIQAPGKEREFVAAITGSGGSTYYADSVKGRFTISRDNAKNTVYLQMNSLKPEDTAVYYCAADRPGSRFIDVDYWGQGTQVTVSS | high polyreactivity
QVQLVESGGGLVQAGGSLRLSCAASGRTFSTYAMGWYRQAPGKEREMVAAISSGGGRTYYADSVKGRFTISRDYAKNTVYLQMNSLKPEDTAVYYSAADGYLRSRHGDYWGQGTQVTVSS | low polyreactivity
QVQLVESGGGLVQAGGSLRLSCAASGRTFSVYALGWYRPAPGKERELVAGITSGGSTNYADSVKGRFTMSRDNAKNTVYLQMNILKPEDTADYSCASENVYAVFLFVSIGDYWGQGTQETVSS | low polyreactivity
QVQLVESGGGLVQAGGSLRLSCAASGRTFSVYAMGWYRQAPGKERELVAAIRTSGGITYYADSVKGRFTISRDNAKNTVYLQMNSLKPEDTAVYYCAAETFRHYSYTRYYYWGQGTQVTVSS | high polyreactivity
QVQLVESGGGLVQAGGSLRLSCAASGRTFSVYAMGWYRQAPGKERELVARIRWSSGITYYADSVKGRFTISRDNAKNTVYLQMNSLKPEDTAVYYCAARYYTSATMDYWGQGTQVTVSS | high polyreactivity
QVQLVESGGGLVQAGGSLRLSCAASGRTFSVYSMGWYRQAPGKERDLVAGITGNGGSTYYADSVKGSFTISRDNAKNTVYLQMNSLKPEDTAVYYCATAYWVIITRGEYGYCGQGTQVTVSS | low polyreactivity
QVQLVESGGGLVQAGGSLRLSCAASGRTFSWYAMGWYRQAPGKERELVAAITRDGGNTYYADSVKGRFTISRDHAKNTVYLQMNSLKPEDTAVYYCAKRGYVNYYCGQGTQVTVSS | high polyreactivity
QVQLVESGGGLVQAGGSLRLSCAASGRTFSWYVMGLYRQAPGKERELVAAINSNSGSTYYADSVKGRFTISRDNAKNTVYLQMNSLKPEDTAVYYCAARAKRYNVRFDYWGQGTQVTVSS | high polyreactivity
QVQLVESGGGLVQAGGSLRLSCAASGRTFSYNAMGWYRQAPGKERELVAAINGDGGSTYYADSVKGRFTISRDNAKNTVYLQMNSLKPEDTAVYYCNRPRIYRYGYWGQGTQVTVSS | high polyreactivity
QVQLVESGGGLVQAGGSLRLSCAASGRTFSYNAMGWYRQAPGKERELVAVISASGGRTNYADSVKGRFTISRDNAKNTVYLQMNSLKPEDTAVYYCNALFGLGVKGYDYWGQGTQVTVSS | low polyreactivity
QVQLVESGGGLVQAGGSLRLSCAASGRTFSYNTMGWYRQAPGKERELVASISGSGGRTYYADSVKGRFTISRDNAKNTVYLQMNSLKPEDTAVYYCAARRYSRDYDYWGQGTQVTVSS | high polyreactivity
QVQLVESGGGLVQAGGSLRLSCAASGRTFSYYAMGLYRQAPGKEREFVAAITWRGSSTYYADSVKGRFTISRDNAKNTVYLQMNSLKPEDTAVYYCNARATNVIWGRYDYWGQGTQVTVSS | high polyreactivity
QVQLVESGGGLVQAGGSLRLSCAASGRTFSYYAMGWYIQAPGKERELVAAITWSGASTYYADSVKGRFTISRDNAKNTVYLQMNSLKPEDTAVYYCNAGWDSGIVQSDETVYKYDYWGQGTQVTVSS | low polyreactivity
QVQLVESGGGLVQAGGSLRLSCAASGRTFSYYAMGWYRQAPGKERELVAAISQRGGSTYYADSVKGRFTISRDNAKNTVYLQMNSLKPEDTAVYYCAVLVSRYRYRVLDDYWGQGTQVTVSS | high polyreactivity
